In US20210338751A1:

Key:
[1] = molecular target: recombinant HuNoV GI.1 P domain (Human Norovirus (HuNoV) GI.1); experiment: ELISA on recombinant HuNoV GI.1 P domain, Spirulina-expressed Ni-NTA purified protein after freeze-drying
[2] = molecular target: recombinant HuNoV GI.1 P domain (Human Norovirus (HuNoV) GI.1); experiment: ELISA on recombinant HuNoV GI.1 P domain, Spirulina-expressed Ni-NTA purified protein, sample B1, not freeze-dried
[3] = molecular target: recombinant HuNoV GI.1 P domain (Human Norovirus (HuNoV) GI.1); experiment: ELISA on recombinant HuNoV GI.1 P domain, Spirulina-expressed Ni-NTA purified protein, sample B2, not freeze-dried
[4] = molecular target: GII.10 VLPs (human norovirus genotype GII.10); experiment: blocking of GII.10 VLP binding to pig gastric mucin (HBGA)
[5] = molecular target: recombinant HuNoV GII.10 P domain (Human Norovirus (HuNoV) GII.10); experiment: ELISA on recombinant P domain
[6] = molecular target: recombinant HuNoV GII.17 P domain (Human Norovirus (HuNoV) GII.17); experiment: ELISA on recombinant P domain
[7] = molecular target: recombinant HuNoV GII.3 P domain (Human Norovirus (HuNoV) GII.3); experiment: ELISA on recombinant P domain
[8] = molecular target: recombinant HuNoV GII.4 P domain (Human Norovirus (HuNoV) GII.4); experiment: ELISA on recombinant P domain

B1: Nano94 (no chaperone partner) (VHH)
VHH: QVQLQESGGGLVQAGGSLRLSCAASGRMFSINSMGWYRQAPGKERELVATISEAGTTTYADSVRGRFTIARDNAKNTVYLQMNSLNPEDTAVYYCNAYIQLDSTIWFRAYWGQGTQVTVSS
- EC50 [1]: 25.9 nM
- EC50 [2]: 21.2 nM
- EC50 [3]: 17.1 nM

B2: SP828 (VHH)
VHH: QVQLQESGGGLVQSGGSLRLSCAASRNINSMHVVGWYRQAPGNQRELVASITDDGSTDYVDSVKGRFTISRDIAENTVYLQMNSLNPEDTAVYYCKGTIVVFTTPMHYWGKGTQVTVSS
- IC50 (read off the curve) [4]: 1 µg/mL

B3: Nano26-TxnA (VHH, not shown: large carriers)
VHH: QVQLQESGGGLVQPGGSLRLSCTAPRIIFFMYDVGWYRQAPEKQRELVAQINSDVSTKYADSVKGRFTISRDNAKRTVYLQMNDLKPEDAAVYYCNVRRASADYWGQGTQVTVSS
- EC50 [5]: 1.46 nM
- EC50 [6]: 2.52 nM
- EC50 [7]: 4.46 nM
- EC50 [8]: 15.4 nM
